41 sequences from the nanobody polyreactivity screen of Harvey et al. (2022) can be followed below.

A short description of the data set: yeast display, Sf9 membrane polyspecificity reagent, FACS + sequencing; frameworks hold sequencing errors. Summed up:
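A nanobody's polyreactivity label depends on the gate it was sorted from. Yeast display cells were stained with 10% biotinylated, detergent-solubilized Sf9 membrane reagent for 1 hour at 4 °C, enriched on streptavidin microbeads and sorted by FACS. The low and high (top ~1%) gates were set on anti-HA fluorescence for expression and streptavidin fluorescence for reagent binding.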
Regarding “QVQLVESGGGLVQAGGSLRLSCAASGYIFTYNALGWSRQAPGKDRELVAAISSGHGRTYYADSVKGRFTISRDHAQNTVDLEMNSLKPEDTAVYYCNASRVVYRQAYLYGYDYWGQGTQVTVSS”, the “polyreactivity (PSR sort gate)” value was “low polyreactivity”.

As to “QVQLQESGGGLVQASGSLRLSCAASGNIFPDYFMGWYRLATGKEREFVANITGGSTTNYADSVKGRFTISRDNANNTVYLQIYSLKPEDTAVYYCAVYFGTVQHAYWGQGTQVTVSS”, the “polyreactivity (PSR sort gate)” value is given as “high polyreactivity”.

On to “QVQLVESGGGLVQAGGSLRLSCAASGSIFVSYTMGWYRQAPGKERELVAAITRSGGSTYYADSVKGRFTISRDNAKNTVYLQMNSLKPEDTAVYYCARVSRRGPGYTTLYSRYDYWGQVTQVTVSS”, for which the “polyreactivity (PSR sort gate)” value is given as “low polyreactivity”.

In the case of “QVQIVESGGGLVQAGGSLRLTCAASGFTLPIYAMGWYRQAPGKEREFVAAITASGDNTYYADSVKGRFTISRDNAKNTVYLQMNSLKPEDTAVYYCAAAHWWIVGYDYWGQGTQVTVSS”, the “polyreactivity (PSR sort gate)” value was “low polyreactivity”.

“QVQLVESGGCLVQAGGSLRLICAASGIIFWGYFMGWYRQAPAKERELVAAISRGGRTYYADSVKGRFTISRDNAKNTVYLQMNSLKPEDTAVDYCAARWGRSYLPQPFQFEYDYWGQGTQVTVSS”: the “polyreactivity (PSR sort gate)” value was “high polyreactivity”.

With “QVQLVESGGGLVQAGGSLRLSCAASGSIFYLYTMGRYRQAPGKERELVAAITNGGSTDYADSVKGRFTISRDNAKNTVYLQMNSLKPEDTAVYYCNADPRYPVDELEYWVTTPYDYWGQGTQVTVSS”, the “polyreactivity (PSR sort gate)” value was “low polyreactivity”.

Regarding “QVQLVESGGGLVQAGGSLRLSCAASGSTFFHYVMGWYRQAPWKERELVAAIRWSGGRTRYADSVKGRFTISRDNAKNTVYLQMNSLKPEDTAVYYCAAYRLSKPFYKYDYWGQGTQVTVSS”, the “polyreactivity (PSR sort gate)” value is listed as “high polyreactivity”.

Consider “QVQLVESGGGLVQAGGSLRLSCAASGSIFKRNAMGWYRQAPGKERELVAAIRVNGGITYYADSVKGRFTISRDNAKNTVFLQMNSLKPEDTSVYYCAVYSRQGLGYWGQGTQVTVSS”, for which the “polyreactivity (PSR sort gate)” value is recorded as “high polyreactivity”.

In the case of “QVQLVESGGGLVQAGGSLRLSCAASGFNFSYYAMGWYRQAPGKERELVAAINSGGVRTYYADSVKGRFTISRDNAKNTVYLQMNSLKPEDTAVYYCAARRHDSRYQYDYWGQGTQVTVSS”, the “polyreactivity (PSR sort gate)” value is given as “high polyreactivity”.

For the sequence “QVQLVESGGGLVQAGGSLRLSCAASGRTFVANAMGLYRQAPGKERELVAAISSSGGSTYYADSVKGRFTISRDYAKNTVYLQMNSLKPEDTAVYYCNRVGVYYRLYPYYYWGQGTQVTVSS”, the “polyreactivity (PSR sort gate)” value is given as “high polyreactivity”.

Regarding “QVQRVESGGGLVQAGGSRRLSCAASGNIFRRYTMGWYRQAPGKERELVAAISRRGGSTHYADSVKGRFTISRDNAKNTVYLQMNSLKPEDTAVYYCNAYLVYSYSPSHYYGFGYWGQGTQVTVSS”, the “polyreactivity (PSR sort gate)” value is on record as “high polyreactivity”.

Take “QVQLVESGGGLVQAGGSLRLSCAASGRTFAPNAMGWYRQAPGKEREMVAAISWSGTSTYYADSVKGRFTISRDNAKNTVYLQMNSLKPEDTAVYYCAADLEGSVGSPLTYDYWGQGTQVTVSS”: the “polyreactivity (PSR sort gate)” value is given as “low polyreactivity”.

Take “QVQLVESGGGLVQAGGSLRLSCAASGYIFHRYAMGWYRQAPGKERELVAAISWRVTSTFYADSVKGRFTISRDNAKNTVYLQMNCLKPEDTAVYYCASVKWVGYKYWSSRKYDYWGQGTQVTVSW”: the “polyreactivity (PSR sort gate)” value was “high polyreactivity”.

Consider “QVQLVESGGGLDQAGGSLRLSCAASGIIFGVNVMGWYRQAPGKERELVATITWRGDSTYYADSVKGRFTISRDNAKNTVYLQMNSLKPEDTAVYYCARGARTGVREDDYWGQGTQVTLSS”, for which the “polyreactivity (PSR sort gate)” value is given as “low polyreactivity”.

In the case of “QVQLVESGGGIVQAGGSLRLSCAASGSTFLYYAMGWSRQAPGKEREFVAAISISGGSTYYADSVKGRFTISRDNAKNTVYLQMNSLKPEDTAVYYCAAEVGIVDYDYWGQGTQVTVSS”, the “polyreactivity (PSR sort gate)” value is given as “low polyreactivity”.

As for “QVQLVESGGGLVQAGGSLRVSCAASGLIFNTYAMGWYRQAPGKERELVAAITVGGGTNYADSVKGLFRISRDNAKNTVYLQMNSLNPADTAVYYCAARLASWPLTYDFQWYEYWGQGTQVTVSS”, the “polyreactivity (PSR sort gate)” value is “low polyreactivity”.

On to “QVQLVESGGGLVQAGGSLRLSCAASGYTFAYNAMGWYRQAPGKERELVAVITWSGDSTYYADSVKGRFTISRDNAKNTVYLQMNSLKPEDTAVYYCAAQVDRWKGREHDYWGQGTQVTVSS”, for which the “polyreactivity (PSR sort gate)” value is “low polyreactivity”.

As for “QVQLVESGGGLVQAGGSLRLRCAASGLIFITYAMGRYRQAPGKERELVATITLRGGSTYYADSVKGRFTISRDNAKNTVYLQMNSLKPEDTAVYYCNADSIYYGYDYWGQGTQVTVSS”, the “polyreactivity (PSR sort gate)” value is on record as “low polyreactivity”.

For the sequence “QVQLVESGGGLVQAGGSLRLSCAAYGSTFFLYAMGWYRQAPGKVRELVAAITYTDGDTYYADSVKGRFTISRDNAKHTVYLQMNSLKPEDTAVYYCNAGGDEPVYGSGYDYWGQGTQVNVSS”, the “polyreactivity (PSR sort gate)” value was “low polyreactivity”.

Regarding “QVQLVESGGGLVQAGGSLRLSCAASGRTFSPYAMGWYRQAPGKERELVAAIYNGGSTYYADSVKGRFTISRDNAKNTVYLQMNSLKPEDTAVYYCAAGRKSLYRIYSEYVEFDYWGQGTQVTVSS”, the “polyreactivity (PSR sort gate)” value is “low polyreactivity”.

Turning to “QVHLVESGGGLVQAGGSLRLSCAASGRIFGYYAMGWYRQAPGKVRELVAAIRRSGGSTYADSVKGRFTISRDNAKNTVYLQMNSLKPEDTAVYDCAAGHYWTSPYRVLSYSYWGQGTQVTVSS”, the “polyreactivity (PSR sort gate)” value is “high polyreactivity”.

Take “QVQLVESGGGLVQAGGSLRLSCAASGIIFWFYAMGWNRQAPGKERELVAAISGDGDSTYYADSVKGRFTISRDNAKNTVYLQMNSLKPEDTAVYYCAAEWDPVFATDEDDYWGQGTQVTVSS”: the “polyreactivity (PSR sort gate)” value is on record as “low polyreactivity”.

With “QVQLQEIGGGLVQAGGSLRLRCAASRNISGSSDLGWYHQAPGKEREFVASITSGGTTYYADSVKGRFTISRDNAKKTVYLQMNSLKAEDTAVYYCAVGDPADAEFGYWGQGTQVTVSS”, the “polyreactivity (PSR sort gate)” value was “low polyreactivity”.

As to “QVQLVESAGGLVQAGGSLRLSCAASGFTFTKYAMGWYRQAPRKESELVAAISSSGYSTYYADSVKGRFTISRDNAKNTVYLQMNSLKPEDSAVYYCAARGYYSSGVDYWGQGTQVTVSS”, the “polyreactivity (PSR sort gate)” value is “high polyreactivity”.

With “QDQLVESGGGLVQAGGSLRLSCAASGITFPNYAMGWYGQAPGKERELVAAISRGDSTYYADSVKGRFTISRDNAKNTVYLQMNSLKPEDTAVYYCAARYGRYWSSSGSWTPYGYWGQGTQVTVSS”, the “polyreactivity (PSR sort gate)” value is reported as “high polyreactivity”.

On to “QVQLVESGGGLVQAGGSLRLSCAATGRSFVLNAMGWYRQAAGKERELVATINYSGSSTYYADSVKGRFTISRDNAKNTVYLQMNSLKPEDTAVYYCNRDVPYRLVYYANYYWGHGTQVTVSS”, for which the “polyreactivity (PSR sort gate)” value was “low polyreactivity”.

For “QVQLVESGGGLVQAGGSLRLSSAASGFTFVINDMGWYRQAPGKEMELVADITSGGDTYYADSVKGRFTISRDNAKNTVYLQMNSLKPEDTAVYYCAADIYPDWIYLLYGYWGQGTQGTVSS”, the “polyreactivity (PSR sort gate)” value is listed as “low polyreactivity”.

In the case of “QVQLVESGGGLVQAGGSLRLSCAASGFIFWTYAMGWYRQAPGKERELVAAITGGGGTTYYADSVKGRFTISRDNAKNTVYLQMNSLKPEDTAVYYCAAKQYRSRSGGYWGQGTQVTVSS”, the “polyreactivity (PSR sort gate)” value is listed as “high polyreactivity”.

As to “QVQLVESGGGLVQAGGSLRLSCAASGSIFFWYTMGWYRQAPGKERELVATITGSGSSTTYADSVKGRFTISRDYAKNTVYLQMNSLKPEDTAVYYCAAADIIDHSFPYDYWGQGTQVTVSS”, the “polyreactivity (PSR sort gate)” value is given as “low polyreactivity”.

In the case of “QVQLVESGGGLVQAGGSLRLSCATSGRIFHRYAMGWYRQAPGKERELVAGISSSGGSTYADSVKGRFTISRDNAKNTVYLQMNSLKPEDTAVYYCAKYFTDVSRHTYDYWGQGTQVTVSS”, the “polyreactivity (PSR sort gate)” value is recorded as “high polyreactivity”.

In the case of “QVQLVESGGGLVQAGGSLRLSCAASGSIFYYYSMGWYRQAPGKERELVATISSTTTTYADSVKGRFTISRDNPINTVYLNMNSMKPEDTAVYYCSFDYWGHGTQVTVSS”, the “polyreactivity (PSR sort gate)” value is on record as “low polyreactivity”.

On to “QVQLVESGGGLVQAGGSLRLSCAASGSIFLFNTMGWYRQAPGKERELVAVISRGGITYYADSVKGRFTISRDNAKNTVYLQMNSLKPEDTAVYYCAADGGYWSQYDYWGQGTQVTVSS”, for which the “polyreactivity (PSR sort gate)” value is given as “low polyreactivity”.

Regarding “QVQLVESGGGLVQAGGSLRLSCAASGTTFRLYAMGWSIQAPGKERELVAAISRSGRTNYADSVKGSFTISRDNAKNTVYLQLNSLKPEDTAVYYCATVPGKCGDYWGQGTQVTVSS”, the “polyreactivity (PSR sort gate)” value was “high polyreactivity”.

Turning to “QVQLVESGGGLVQAGGSLRLSCAASGSTFQYNAMGWYRQAPGKERELVAAISTGTSTYYADSVKGRFTISRDNAKNTVYLQMNSLKPEDTAVYYCAAEYWGDYTEYNYWGQGTQVTVSS”, the “polyreactivity (PSR sort gate)” value is on record as “high polyreactivity”.

Take “QVQLVESGGGLVQAGGSLRLSCAASGRIFGPYAMGWYRQAPGKERELVASISYSGGSTYYADSVKGRFTISRDNAKNTVYLQMNSLKPEDTAVYYCARRAVYSKRRYDYWGQGTQVTVSS”: the “polyreactivity (PSR sort gate)” value is given as “low polyreactivity”.

On to “QVQLVESGGGLVQAGGSLRLSCAASGNNFGNNAMGWYRQAPGKERELVAAISSSGTSTYYADSVKGRFTISRDNAKNTVYLQMNSLKPEDTSVYYCNADPLPYDGYYDYDYWGQGTEVTVSS”, for which the “polyreactivity (PSR sort gate)” value is “low polyreactivity”.

As for “QVQLIESGGGLVQAGGSLRLSCAASGGTFRAYAMGWYRQAPGKEREFVAAITWSGGRTYYADSVKGRFTISRDNAKNTVYLQMNSLKPEDTEVYYCATDQGHYYHAEHDYWGQGTQVTVSS”, the “polyreactivity (PSR sort gate)” value is on record as “low polyreactivity”.

On to “QVQLVESGGGLVQAGGSLRLSCAASGSIFRIYAMGWYRQAPGKERELVAGISKSGGSTYYADSVKGRFTISRDNAKNTVYLQMNSLKPEDTAVYYCAAGYYYFWTYDYWGQGTQVTVSS”, for which the “polyreactivity (PSR sort gate)” value is “low polyreactivity”.

On to “QVQLVESGGCLVQAGGSLRLSSAASGSTFYYYVMGLYRQAPGKERELVAAINSGGSTYYADSVQGRFTISRDNAKNTVYLQMNSLKPEDTAVYYCAKSCSYWYQYYYWGQGSQVTVSS”, for which the “polyreactivity (PSR sort gate)” value is recorded as “low polyreactivity”.

“QVQLVESGGGLVQAGGSLRLSCAASGRTFGTYAMGWYRQAPGKERELVARISYTGGSTSYADSVKGRFTISRDNAKNTVYLQMNSLKPEDTAVYYCNASSRSGSWRFYYWGQGTQVTVSS”: the “polyreactivity (PSR sort gate)” value is “high polyreactivity”.

For the sequence “QVQLVESGGGLVQAGGSLRLSCSASGHIFRTYAMGWYRQAPWKERELVAGITPNGDTTYYADSVKGRFTISRDHAKITVYLQMNSLKPEDTAVYYCDAQYSQRPADRYNSWGQGTQVTVSS”, the “polyreactivity (PSR sort gate)” value is “low polyreactivity”.
